From patent US20070286806A1, “Methods and Compositions for Modulating a Steroid Receptor” (Mount Sinai Hospital, priority 2004, published 2007)

Biological target: T1, ERα (Homo sapiens, UniProt P03372)
T1 construct: expressed in transfected cells; host or cells: SHM (Syrian hamster myocyte) cells
T1 sequence (P03372 1-595): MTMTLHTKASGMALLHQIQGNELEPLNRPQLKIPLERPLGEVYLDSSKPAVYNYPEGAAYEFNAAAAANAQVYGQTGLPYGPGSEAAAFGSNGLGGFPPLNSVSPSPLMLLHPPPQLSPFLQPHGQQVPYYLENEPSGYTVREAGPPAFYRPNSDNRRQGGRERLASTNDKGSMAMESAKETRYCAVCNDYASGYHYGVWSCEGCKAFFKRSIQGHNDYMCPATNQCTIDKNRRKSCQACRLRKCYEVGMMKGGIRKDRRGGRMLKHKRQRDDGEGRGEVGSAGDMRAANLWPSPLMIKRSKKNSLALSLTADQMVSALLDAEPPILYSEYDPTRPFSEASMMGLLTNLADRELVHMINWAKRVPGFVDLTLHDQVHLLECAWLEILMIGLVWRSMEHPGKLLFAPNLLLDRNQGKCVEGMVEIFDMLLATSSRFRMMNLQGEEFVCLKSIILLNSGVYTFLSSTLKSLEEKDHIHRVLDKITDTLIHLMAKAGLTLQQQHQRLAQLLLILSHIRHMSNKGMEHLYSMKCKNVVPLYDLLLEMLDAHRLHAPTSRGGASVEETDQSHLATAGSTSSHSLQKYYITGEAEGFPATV
Assay: ERα transactivation, 3xERE luciferase reporter in SHM cells
Type: cell-based
Conditions: 3xERE promoter
Method: FIG. 4. PSF inhibit transactivation of PR but not estrogen receptor (ER). (A) SHM cells were transient cotransfected with PRA or PRB expression vectors with or without increasing dose (0.05, 0.1 and 0.2 μg) of His-PSF, together with 3×PRE (upper) or MMTV (lower) luciferase reporter vector. Four hours after transfection, culture medium was replaced with fresh DMEM containing 10 nM progesterone and the incubation continued for at least 30 hours. (B) SHM cells were transiently cotransfected with ERα or ERβ expression vector with (0.2 μg) or without His-PSF, together with 3×ERE luciferase reporter vector. Four hours after transfection, culture medium was replaced with fresh DMEM with (solid bar) or without (empty bar) 10 nM estrodial and incubation continued for at least 30 hours. Luciferase activity was measured and normalized by β-galatosidase activity. […]
For immunoprecipitation of the endogenous PR and PSF, T47D cells cultured in 150 mm dishes were lysed in 800 μl NETN buffer containing 150 mM NaCl plus protease inhibitor cocktail. […] Gels were treated with Enhancer (NEN, Boston, US) dried and analyzed by autoradiography. • Cell culture and transient transfection: SHM cells and 293T cells were maintained in DMEM plus 5% FCS (Sigma) as described before (22). […] Luciferase activity was determined by using the luciferin reagent (Promega) according to manufacture's protocol. […]

B1: polypyrimidine tract binding protein-associated splicing factor (protein)
chain: MSRDRFRSRGGGGGGFHRRGGGGGRGGLHDFRSPPPGMGLNQNRGPMGPGPGQSGPKPPIPPPPPHQQQQQPPPQQPPPQQPPPHQPPPHPQPHQQQQPPPPPQDSSKPVVAQGPGPAPGVGSAPPASSSAPPATPPTSGAPPGSGPGPTPTPPPAVTSAPPGAPPPTPPSSGVPTTPPQAGGPPPPPAAVPGPGPGPKQGPGPGGPKGGKMPGGPKPGGGPGLSTPGGHPKPPHRGGGEPRGGRQHHPPYHQQHHQGPPPGGPGGRSEEKISDSEGFKANLSLLRRPGEKTYTQRCRLFVGNLPADITEDEFKRLFAKYGEPGEVFINKGKGFGFIKLESRALAEIAKAELDDTPMRGRQLRVRFATHAAALSVRNLSPYVSNELLEEAFSQFGPIERAVVIVDDRGRSTGKGIVEFASKPAARKAFERCSEGVFLLTTTPRPVIVEPLEQLDDEDGLPEKLAQKNPMYQKERETPPRFAQHGTFEYEYSQRWKSLDEMEKQQREQVEKNMKDAKDKLESEMEDAYHEHQANLLRQDLMRRQEELRRMEELHNQEMQKRKEMQLRQEEERRRREEEMMIRQREMEEQMRRQREESYSRMGYMDPRERDMRMGGGGAMNMGDPYGSGGQKFPPLGGGGGIGYEANPGVPPATMSGSMMGSDMRTERFGQGGAGPVGGQGPRGMGPGTPAGYGRGREEYEGPNKKPRF
notes: expressed from transfected His-PSF vector or in vitro translated
  inhibitory effects on ERα: not observed
